Measured values reported in the supplement of paper PMC7125110.
± gives the standard error. Variants at the floor of the assay were thinned out.

B1: glmS ribozyme (parent)
chain: AUAAAAGCGCCAGAACUACAGAAAUGUAGUUGACGAGGAGGAGGUUUAUCGAAUUUUCGGCGGAUGCCUCCAAA

Variants of: B1
Assay: self-cleavage kobs at 2500 uM GlcN6P; higher = faster cleavage; RNA array
Conditions: with glucosamine-6-phosphate
In short: (§1)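 Using a hybridised Cy3 probe at 37 °C, barcoded ribozyme variants transcribed in situ by E. coli RNA polymerase on sequenced MiSeq chips were monitored across tiles imaged over ~14 h. The flow contained glucosamine-6-phosphate from 40 μM to 10 mM in HEPES/KCl/Mg(OAc)2 buffer. Signals were normalised to baseline and to non-cleaving reference variants before per-tile medians were fit to one- or two-exponential decays to yield kobs. Weighted Michaelis–Menten fits across concentrations gave kcat and KM.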

| Variant | self-cleavage kobs at 2500 uM GlcN6P [s⁻¹] |
| --- | --- |
| AUAAAAGCGCCAGCACUACAGAAAUGUAGUUGACGACGAGGAGGUUUAUCGAAUUUUCGGCCGAUGCCUCCAAA | < 1e-05 |
| AUAAAAGCGCCAGCACUACAGAAAUUUAGUUGACGAGGAGGAGGUUUAUCGAAUUUUCGGCUGAUGCUUCCAAA | < 1e-05 |
| AUAAAAGCGCCAGGACUACAGAAAUGUAGUUCACGAGGAGGAGGUUUAUCGAAUUUUAGGCGGGUGCCUCCAAA | 9.27e-05 ± 3e-05 |
| AUAAAAGCGCCAGGACUACAGAAAUGUAGUUGAUAAGGAGGACGUUUAUCGAAUUUUCGGCGGAUGCCUCCAAA | < 1e-05 |
| AUAAAAGCGCCAAAACUACAGAAAUGUAGUUUACGAGGAGGAGGUUUAUCGAAUUUUCGGCGGAUGACUCCAAA | 3.47e-05 ± 1.3e-05 |
| AUAAAAGCGCCAGGACUACAGAAAUGUAGUUGACGAGGAGGAGGUUUAUCGACUUUGCGGCGGAUGCCUCCAAA | 0.000168 ± 5.2e-05 |
| AUAAAAGCGCCAUAACUACAGAAAUGUAGUUGACGAGGAGGAUGUUUAUCGAAUUUUCGGCGUAUGCCUCCAAA | < 1e-05 |
| AUAAAAGCGCCAGCAAUACAGAAAUGUAGUUGACGAGGAGGAGGUUUAUCGAAUUUUCGGCGUAUGCCUCCAAA | < 1e-05 |
| AUAAAAGCGCCAUAUCUACAGAAAUGUAGGUGACGAGGAGGAGGUUUAUCGAAUUUUCCGCGGAUGCCUCCAAA | < 1e-05 |
| AUAAAAGCGCCAAAACUACAGAAAUGUAGUUCACGAGGAGGAGGUUUAUCGAACUUUCGGCGGAUGCCUCCAAA | 0.000273 ± 9.2e-05 |
| AUAAAAGCGCCAGCACUACAGAAAUGUAGUUGACGAGGAGGAUGUUUAUCGAAUUUUCGGAGGAUGCCUCCAAA | < 1e-05 |
| AUAAAAGCGCCAAAACUACAGAAAUGUAGUUUACCAGGCGGAGGUUUAUCGAAUUUUCGGCGGAUGCCUCCAAA | < 1e-05 |
| AUAAAAGCGCCAGCACUACAGAAAUGUAGUUGACGAGGAGGACGUUUAUCAAAUUGUCGGCGGAUGCCUCCAAA | < 1e-05 |
| AUAAAAGCGCCAGGACUACAGAAAUGUAAUUGACGUGGAGGAGGUUUAUCGAAUUUUCGGCGGAUGCCUCCAAA | < 1e-05 |
| AUAAAAGCGCCAGCACUACAGAAAUGUAGUUGACGAGGAGGAGGUUUAUCGAAAUUUCCGCGGAUGCCUCUAAA | < 1e-05 |
| AUAAAAGCGCCAAAACUACAGAAAUGUAGUUCACGAGGAGGAGGGUUAUCGAAUUUUCGGCGGAUGCCUCCAAA | 4.68e-05 ± 1.9e-05 |

| Variant | self-cleavage kobs at 2500 uM GlcN6P [s⁻¹] |
| --- | --- |
| AUAAAAGCGCCAGCACUACAGAAAUGUAGUUGACGAGGAGGAGGUCUAUAGAAUUUCCGGUGGACGCCUCCAAA | < 1e-05 |
| AUAAAAGCGCCAGCACUACAGAAAUGUAGUUGACGAGGAGGAGGUUUAUAGAUUUUUCGGCGGAUGCCUGCAAA | 4.72e-05 ± 2e-05 |
| AUAAAAGCGCCAUAACUACAGAAAUGUAGUUGACGAGGAGCAGGUUUAUCGAAUUUUCGACGGAUGCCUCCAAA | < 1e-05 |
| AUAAAAGCGCCAGCACUACAGAAAUGUAGUUGACGAGGAGGAGGUCUAUCGAAUUUUCGGCGGAUGCCUUCAAA | 0.000279 ± 5.2e-05 |
| AUAAAAGCGCCACGACUACAGAAAUGUAGUUGACGAGGAGGAGGUUUAUCGAAUUUUCGGCGGAUGCUUCCAAA | 8.88e-05 ± 2.7e-05 |
| AUAAAAGCGCCAAAACUACAGAAAUGUAGUUGACGAGGAGGAGCUAUAUCGAGUUUUCGGCGGAUGCCUCCAAA | < 1e-05 |
| AUAAAAGCGCCACAACUACAGAAAUGUAGUUGACGAGGAGGAGGUUUAUCGAAUUUUCGGCCGCUGCCUCCAAA | < 1e-05 |
| AUAAAAGCGCCACAACUACAGAAAUGUAGUUGACGCGGAGGAGGUUUAUCGAAUUUUCGGCGGAUGCCUCUAAA | < 1e-05 |
| AUAAAAGCGCCAUAACUACAGAAAUGUACUUGACGAGGACGAGGUUUAUUGCAUUUUCGGCGGAUGCCUCCAAA | < 1e-05 |
| AUAAAAGCGCCAGCACUACAGAAAUGUAGUAGACGAGGAGGAGGUUUAUCGAACUUACGGCGGAUGCCUCCAAA | 0.000121 ± 3.3e-05 |
| AUAAAAGCGCCAGCACUACAGAAAUGUAGUUGACGAGGAGGAAGUUUAUCGAAUUUUCGGUGGAUGCCUCCAAA | < 1e-05 |
| AUAAAAGCGCCAUAACUACAGAAAUGUAGUUGACGAGGAGGAGGUUUAUCGAAAUUUCGGCGGAAGCCUCCAAA | 5.74e-05 ± 1.5e-05 |
| AUAAAAGCGCCAUAACUACAGAAAUGUAGCUCACGAGGAGGAGGUUUAUCGAAUUUUCGGCGGAUGCCUCCAAA | 6.71e-05 ± 2.9e-05 |
| AUAAAAGCGCCAGCACUACAUAAAUGUAGUUGACGAGGAGGAGGUUUAUCGAAUUUUCGGCGGAUGCCUCCAAA | 0.00132 ± 0.00031 |
| AUAAAAGCGCCAGCACUACAGAAAUGUAGUUGACGAGGAGGAGGUUUAUCGGAUUUUCGGCGGAUGCCUCCAAA | 0.000215 ± 3.3e-05 |
| AUAAAAGCGCCAGCACUACAGAAAUGUAUUUGACGAGGCGGAGGUGAAUCGAAUUUUCGGCGGAUGCCUCCAAA | < 1e-05 |

Variants of: B1
Assay: self-cleavage kobs at 10000 uM GlcN6P; higher = faster cleavage; RNA array
Conditions: with glucosamine-6-phosphate
In short: as §1

| Variant | self-cleavage kobs at 10000 uM GlcN6P [s⁻¹] |
| --- | --- |
| AUAAAAGCGCCAGCACUACAGAAAUGUAGUUGACGAGGAGGACGUUUAUCAAAUUGUCGGCGGAUGCCUCCAAA | < 1e-05 |
| AUAAAAGCGCCAGCACUACAGAAAUGUAGUUGACGAGGAGGAGGUUUAUCGAAAUUUCCGCGGAUGCCUCUAAA | < 1e-05 |
| AUAAAAGCGCCAGCACUACAGAAAUGUAGUUGACGAGGAGGAGGUCUAUCGAAUUUUCGGCGGAUGCCUUCAAA | 0.000482 ± 9.4e-05 |
| AUAAAAGCGCCAGCACUACAGAAAUGUAGUAGACGAGGAGGAGGUUUAUCGAACUUACGGCGGAUGCCUCCAAA | 9.39e-05 ± 1.9e-05 |
| AUAAAAGCGCCAGCACUACAGAAAUGUAGUUGACGAGGAGGAGGUUUAUCGGAUUUUCGGCGGAUGCCUCCAAA | 0.000282 ± 5.3e-05 |
